Paper PMC6045459 (Nature structural & molecular biology, 2018)
Blank lines part the entries; values can stand above or below the molecule they belong to.

Tests used:
[1] = molecular target: NUDT16TI with deletion of His105 (UniProt Q96DE0); experiment: ITC
[2] = molecular target: NUDT16TI (NUDT16 Tudor-interacting), purified alone (UniProt Q96DE0); experiment: ITC
[3] = molecular target: NUDT16TI K5S (UniProt Q96DE0); experiment: ITC
[4] = molecular target: TIRR (residues 6-211), untagged (human, UniProt Q9BRJ7 6-211); experiment: crystal structure
Chain of TIRR (residues 6-211), untagged (Q9BRJ7 6-211): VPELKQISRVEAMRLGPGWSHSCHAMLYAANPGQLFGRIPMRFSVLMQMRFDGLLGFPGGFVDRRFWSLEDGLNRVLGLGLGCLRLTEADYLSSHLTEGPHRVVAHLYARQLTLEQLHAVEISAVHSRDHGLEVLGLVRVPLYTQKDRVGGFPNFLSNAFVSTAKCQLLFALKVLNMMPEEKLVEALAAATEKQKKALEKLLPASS

[5] = molecular target: the molecule itself; experiment: AUC

- fold decrease in affinity against NUDT16TI [1]: 38 fold
- Kd [2]: 1200 nM
- fold increase of Kd with excess IMP against no IMP [2]: 3 fold
- fold decrease in affinity against NUDT16TI [3]: 14 fold
Molecule: 53BP1-Tudor (residues 1484-1603) (from UniProt Q12888 1484-1603) (domain or fragment)

- binding result [4]: binds
B1: 53BP1-Tudor (residues 1484-1603) (domain or fragment, human, UniProt Q12888 1484-1603, looked up)
chain: NSFVGLRVVAKWSSNGYFYSGKITRDVGAGKYKLLFDDGYECDVLGKDILLCDPIPLDTEVTALSEDEYFSAGVVKGHRKESGELYYSIEKEGQRKWYKRMAVILSLEQGNRLREQYGLG

B2: 53BP1 (residues 1204-1603) (domain or fragment, human, UniProt Q12888 1204-1603, looked up)
chain: EKPVSAPGDDTESLHSQGEEEFDMPQPPHGHVLHRHMRTIREVRTLVTRVITDVYYVDGTEVERKVTEETEEPIVECQECETEVSPSQTGGSSGDLGDISSFSSKASSLHRTSSGTSLSAMHSSGSSGKGAGPLRGKTSGTEPADFALPSSRGGPGKLSPRKGVSQTGTPVCEEDGDAGLGIRQGGKAPVTPRGRGRRGRPPSRTTGTRETAVPGPLGIEDISPNLSPDDKSFSRVVPRVPDSTRRTDVGAGALRRSDSPEIPFQAAAGPSDGLDASSPGNSFVGLRVVAKWSSNGYFYSGKITRDVGAGKYKLLFDDGYECDVLGKDILLCDPIPLDTEVTALSEDEYFSAGVVKGHRKESGELYYSIEKEGQRKWYKRMAVILSLEQGNRLREQYGLG
- stoichiometry N [5]: 2
